Results from patent US20180236053A1 (CELLECTIS, published 2018).

Key:
[1] = target: CD38 antigen on the surface of cells (U266 CD38+, MOLP8, Daudi, T-ALL cell lines, activated T cells) (human, UniProt P28907 1-300); assay: cell-based or functional assay
[2] = target: T1, CD38-Fc protein (produced by LakePharma) (UniProt P28907 43-300, limits assumed); assay: flow cytometry, CD38 Fc staining of CD38/TRAC double KO T cells transduced with rLV (FIG. 27C)
T1 construct: Staining reagent for CAR detection by flow cytometry; also called CD38-Fc fusion protein; not shown: Fc part
Description: The parameters are the following: T cells were activated by using Dynabeads CD3-CD28, the culture were made by using medium Xvivo+5% human serum heat inactivated+IL-2 20 ng/ml, a double KO (DKO) CD38-TRAC was performed by using a ratio of 2 μg TALEN mRNA per million of cells (5 million cells/cuvette); the transduction was performed by using rLV from Vectalys(France) at a MOI of 5.
The screening of the 4 CARs 25A10-v1, -v2, 28F5-v1 and -v2 after rLV transduction in DKO T cells has shown that all the CARs were expressed at the T cell surface with a high efficiency (>40%) and 3 of them above 80% (FIG. 27C). RQR8 expression was correlated with CAR expression (FIG. 27A). Most of the T cells were CD38 negative when T cells have been transduced by CD38 CARs (FIG. 27A). It is shown also that 60-85% of T cells endowed with the above 4 CARs were DKO TRAC/CD38 (FIG. 27B).

[3] = target: T1, CD38-Fc protein (produced by LakePharma); assay: flow cytometry, CD38-Fc fusion protein staining of purified CD38-deficient T cells transfected with CAR mRNA (FIG. 15)
Description: T cells were purified from buffy coat samples and activated using anti-CD3/CD28 coated beads and IL-2. CD38-1 TALEN mRNA was transfected in T cells at day 4 after activation, 6 days later CD38 negative cells were purified by using magnetic separation (Miltenyi). The day after, CAR mRNAs were transfected. The CAR expression and degranulation capacity of CART cells were assessed 24 hours after the transfection. CAR expression and cytotoxic capacity of CART cells were assessed 48 hours after the transfection.
All CARs were detected 24 h after transfection except the 25A10-V3 However, the latter expressed anti-CD38 CAR above the background. The 13F11-V2, 25A10-V1, 25A10-V2 and 28F5-V2 were highly expressed (more than 80%).

B1: 28F5-V2 CAR (other)
chain: QIQLVQSGPELKKPGETVKISCKASGYTFTKYGMNWVKQTPGKGLKWMGWINTNSGEPTYAEEFKGRFAFSLETSASTAYLQINNLKNEDTATYFCARGAYYRYDGEVSYYAMDYWGQGTSVTVSSGGGGSGGGGSGGGGSQIILTQSPAIMSASLGERVTMTCTATSSLSSSYLHWYQQKPGSSPKLWIYSTSHLASGVPARFSGGGSGTSYSLTISSMEAEDAATYYCHQYHLSPYTFGGGTKLEIKTTTPAPRPPTPAPTIASQPLSLRPEACRPAAGGAVHTRGLDFACDIYIWAPLAGTCGVLLLSLVITLYCKRGRKKLLYIFKQPFMRPVQTTQEEDGCSCRFPEEEEGGCELRVKFSRSADAPAYQQGQNQLYNELNLGRREEYDVLDKRRGRDPEMGGKPRRKNPQEGLYNELQKDKMAEAYSEIGMKGERRRGKGHDGLYQGLSTATKDTYDALHMQALPPR
notes: Chimeric antigen receptor on T cells; signal peptide left out here
ratio of degranulation against U266 CD38+ and U266 CD38- [1]: > 2 ratio | % of T cells stained by CD38-Fc (CAR expression) [2]: > 40% | % of T cells stained by CD38-Fc (CAR expression) [3]: > 80%
